# Data published in patent US20230002460A1 (YUHAN, published 2023).
# Where two headings read alike, the source gives them in different places.
# Columns and labels:
# Assay in all cases: cell-based or functional assay
# [1] = molecular target: T1, GDF15 receptors GFRAL and RET, overexpressed together on HEK293 cells (UniProt Q6UXV0 19-394; P07949 29-1114, limits assumed)
# [2] = molecular target: T1, GDF15 receptors GFRAL and RET, …; remark: listed apart in the source
# [3] = molecular target: T1, GDF15 receptors GFRAL and RET, …; remark: listed apart in the source
# T1 sequence (Q6UXV0 19-394 limits assumed, chain 1 of 2): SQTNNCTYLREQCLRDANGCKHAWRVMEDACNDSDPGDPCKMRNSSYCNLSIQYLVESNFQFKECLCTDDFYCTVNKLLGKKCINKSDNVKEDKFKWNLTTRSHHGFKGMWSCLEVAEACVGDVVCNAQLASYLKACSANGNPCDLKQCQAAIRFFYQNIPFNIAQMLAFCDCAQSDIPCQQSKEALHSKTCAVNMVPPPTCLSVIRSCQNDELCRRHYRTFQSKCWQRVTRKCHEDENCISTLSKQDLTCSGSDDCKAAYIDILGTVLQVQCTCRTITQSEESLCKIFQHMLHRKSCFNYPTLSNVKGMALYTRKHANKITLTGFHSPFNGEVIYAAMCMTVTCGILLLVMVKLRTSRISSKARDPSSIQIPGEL
# T1 sequence (P07949 29-1114 limits assumed, chain 2 of 2): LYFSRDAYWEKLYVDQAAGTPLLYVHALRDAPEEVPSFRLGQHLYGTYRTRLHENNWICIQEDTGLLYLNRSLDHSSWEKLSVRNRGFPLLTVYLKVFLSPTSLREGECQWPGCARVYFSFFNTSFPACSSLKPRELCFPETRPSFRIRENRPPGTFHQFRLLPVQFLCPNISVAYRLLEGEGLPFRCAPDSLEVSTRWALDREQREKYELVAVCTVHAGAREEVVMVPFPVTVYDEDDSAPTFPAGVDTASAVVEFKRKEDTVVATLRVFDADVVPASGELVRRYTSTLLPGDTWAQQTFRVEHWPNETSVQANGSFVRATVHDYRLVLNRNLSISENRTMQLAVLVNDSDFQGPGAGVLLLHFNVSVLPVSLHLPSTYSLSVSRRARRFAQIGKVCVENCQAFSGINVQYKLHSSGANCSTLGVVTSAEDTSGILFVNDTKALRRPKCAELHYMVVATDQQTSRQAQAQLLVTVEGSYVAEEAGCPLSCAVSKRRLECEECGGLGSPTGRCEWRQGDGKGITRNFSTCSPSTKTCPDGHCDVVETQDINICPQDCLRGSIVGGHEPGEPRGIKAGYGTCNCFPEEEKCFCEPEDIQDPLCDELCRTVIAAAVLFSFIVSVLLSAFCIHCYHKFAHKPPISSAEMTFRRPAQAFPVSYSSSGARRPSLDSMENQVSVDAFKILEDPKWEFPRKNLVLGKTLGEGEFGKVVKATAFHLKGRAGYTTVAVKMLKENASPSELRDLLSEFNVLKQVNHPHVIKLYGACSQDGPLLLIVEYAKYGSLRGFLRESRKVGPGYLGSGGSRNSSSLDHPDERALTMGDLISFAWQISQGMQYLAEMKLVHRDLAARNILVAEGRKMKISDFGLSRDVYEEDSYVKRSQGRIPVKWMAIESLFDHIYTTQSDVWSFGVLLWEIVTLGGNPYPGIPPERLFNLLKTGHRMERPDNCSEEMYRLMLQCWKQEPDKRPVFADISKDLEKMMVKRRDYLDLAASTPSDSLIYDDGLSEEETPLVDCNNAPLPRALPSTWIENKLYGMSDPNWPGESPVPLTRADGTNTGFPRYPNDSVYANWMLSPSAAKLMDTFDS
binder,measurement,setting,value
long-acting GDF15 fusion protein (dimer) FWT + Fc_hole (ΔN2) (Fc fusion) chain 1: APALAGGPSVFLFPPKPKDTLMISRTPEVTCVVVDVSHEDPEVKFNWYVDGVEVHNAKTKPREEQYNSTYRVVSVLTVLHQDWLNGKEYKCKVSNKALPAPIEKTISKAKGQPREPQVYTLPPSREEMTKNQVSLWCLVKGFYPSDIAVEWESNGQPENNYKTTPPVLDSDGSFFLYSKLTVDKSRWQQGNVFSCSVMHEALHNHYTQKSLSLSPGKGGGGSGGGGSGGGGSGGGGSGGGGSNGDHCPLGPGRCCRLHTVRASLEDLGWADWVLSPREVQVTMCIGACPSQFRAANMHAQIKTSLHRLKPDTVPAPCCVPASYNPMVLIQKTDTGVSLQTYDDLLAKDCHCI chain 2: not shown,EC50,[1],7.3 nM
same,Emax (%) [relative to FWT 100%],[1],100%
same,EC50,[2],5.4 nM
same,Emax (%) [relative to FWT 100%],[2],100%
same,EC50,[3],7 nM
same,Emax (%) [relative to FWT 100%],[3],100%
